Source: patent US20180011102A1 (University of Texas, published 2018)

T1: SFB-PGK1 Δ1-57 (human, UniProt P00558 58-417)
T1 construct: also called PGK1 Δ1-57 mutant; not shown: C-terminal SFB (S-Flag-Biotin) tag and any linker or added start Met of the pcDNA6/SFB construct
T1 sequence: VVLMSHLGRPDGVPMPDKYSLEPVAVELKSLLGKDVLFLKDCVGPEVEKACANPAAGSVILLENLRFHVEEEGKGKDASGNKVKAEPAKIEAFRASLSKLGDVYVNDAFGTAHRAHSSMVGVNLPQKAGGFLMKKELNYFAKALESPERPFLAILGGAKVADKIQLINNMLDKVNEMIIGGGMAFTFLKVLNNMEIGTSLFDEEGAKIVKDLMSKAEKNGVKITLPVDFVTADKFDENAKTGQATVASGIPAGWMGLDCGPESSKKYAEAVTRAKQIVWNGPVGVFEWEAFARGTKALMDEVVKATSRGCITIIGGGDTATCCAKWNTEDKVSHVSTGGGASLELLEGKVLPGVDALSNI

T2: SFB-PGK1 R39/K41A (human, UniProt P00558 1-417)
T2 construct: not shown: SFB (S-Flag-Biotin) tag, pcDNA6/SFB vector
T2 sequence (looked up): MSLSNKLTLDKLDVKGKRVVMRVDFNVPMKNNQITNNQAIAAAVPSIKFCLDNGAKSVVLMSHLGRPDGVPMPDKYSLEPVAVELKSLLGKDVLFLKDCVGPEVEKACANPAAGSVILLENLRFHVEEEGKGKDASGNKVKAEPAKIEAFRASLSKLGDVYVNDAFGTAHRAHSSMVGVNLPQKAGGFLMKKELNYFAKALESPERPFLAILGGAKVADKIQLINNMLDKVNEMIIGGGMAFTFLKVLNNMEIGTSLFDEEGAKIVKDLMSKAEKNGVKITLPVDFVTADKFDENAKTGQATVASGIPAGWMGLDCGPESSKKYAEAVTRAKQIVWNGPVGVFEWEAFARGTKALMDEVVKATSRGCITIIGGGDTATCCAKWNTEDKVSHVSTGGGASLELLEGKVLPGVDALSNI

B1: SFB-PDHK3 expressed in U87 cells (enzyme)
chain: not shown
notes: not shown: SFB tag, pcDNA6/SFB vector
B2: endogenous PGK1 (phosphoglycerate kinase 1) of U87 human GBM cells (enzyme)
chain: SLSNKLTLDKLDVKGKRVVMRVDFNVPMKNNQITNNQRIKAAVPSIKFCLDNGAKSVVLMSHLGRPDGVPMPDKYSLEPVAVELKSLLGKDVLFLKDCVGPEVEKACANPAAGSVILLENLRFHVEEEGKGKDASGNKVKAEPAKIEAFRASLSKLGDVYVNDAFGTAHRAHSSMVGVNLPQKAGGFLMKKELNYFAKALESPERPFLAILGGAKVADKIQLINNMLDKVNEMIIGGGMAFTFLKVLNNMEIGTSLFDEEGAKIVKDLMSKAEKNGVKITLPVDFVTADKFDENAKTGQATVASGIPAGWMGLDCGPESSKKYAEAVTRAKQIVWNGPVGVFEWEAFARGTKALMDEVVKATSRGCITIIGGGDTATCCAKWNTEDKVSHVSTGGGASLELLEGKVLPGVDALSNI
notes: Endogenous protein from cell lysates
B3: SFB-PDHK4 expressed in U87 cells (enzyme)
chain: not shown
notes: as for B1
B4: endogenous TOM20 of U87 cells (receptor, human, UniProt Q15388 1-145, looked up)
chain: MVGRNSAIAAGVCGALFIGYCIYFDRKRRSDPNFKNRLRERRKKQKLAKERAGLSKLPDLKDAEAVQKFFLEEIQLGEELLAQGEYEKGVDHLTNAIAVCGQPQQLLQVLQQTLPPPVFQMLLTKLPTISQRIVSAQSLAEDDVE
B5: endogenous PDHK1 of U87 cell mitochondria (enzyme)
chain: not shown
notes: also called pyruvate dehydrogenase kinase 1

What was measured:
[1] = biological target: B2; assay: streptavidin pull-down from mitochondrial fractions of U87 cells (FIG. 14C)
Method: (§1) Immunoblotting analyses were performed with the indicated antibodies. […] Immunoblotting analyses were performed with the indicated antibodies. […] Immunoblotting analyses were performed with the indicated antibodies. […] ATP concentrations in mitoplast isolated from U87 or U251 cells treated with or without hypoxia for 6 h were measured. […] Mitochondria fractions of U87 cells treated with or without hypoxia for 6 h were immunodepleted with or without an anti-PDHK1 pT338 antibody. Immunoblotting analyses were performed with the indicated antibodies. […] U87 and U251 cells expressing PGK1 shRNA were reconstituted to express WT rPGK1 or rPGK1 T378P. Immunoblotting analyses were performed with the indicated antibodies. FIGS. 14M-N. U87 and U251 cells with PGK1 shRNA and with reconstituted expression of WT rPGK1 or rPGK1 T378P were stimulated with or without hypoxia for 6 h. Mitochondria fractions were prepared. Immunoblotting analyses were performed with the indicated antibodies. […] Data represent the means±SD of three independent experiments. Immunoblotting analyses were performed with an anti-PGK1 antibody. […] U87 cells were stimulated with or without hypoxia for 6 h. Immunoblotting analyses of mitochondrial lysates were performed with the indicated antibodies.

[2] = biological target: SFB-PDHK2 expressed in U87 cells (human, UniProt Q15119 1-407); assay: as above
Method: as §1

[3] = biological target: T1, SFB-PGK1 Δ1-57; assay: streptavidin pull-down from U87 cells (FIG. 3D)
Method: (§2) FIGS. 3A-G. Immunoblotting and immunoprecipitation analyses were carried out using antibodies against the indicated proteins. […] FIGS. 3D-E. U87 cells expressing the indicated SFB-tagged PGK1 proteins were treated with or without hypoxia for 6 h. Streptavidin agarose beads were used to pull down SFB-tagged proteins.

[4] = biological target: T2, SFB-PGK1 R39/K41A; assay: streptavidin pull-down from U87 cells (FIG. 3E)
Method: as §2

[5] = biological target: B2; assay: PGK1 immunoprecipitated from mitochondria of U87 cells, anti-PDHK1 immunoblot (FIG. 4B)

Binder: B1
- binding result [1]: no binding

Binder: B2
- binding result [2]: no binding

Binder: B3
- binding result [1]: no binding

Binder: B4
- binding result [3]: no binding
- binding result [4]: no binding

Binder: B5
- binding result [5]: binds
